Drawing on patent US20230049752A1 (University of California, published 2023), this text covers FACS signal for ten molecules.

B1: AB S4 (antibody, V domains shown)
VH: EVQLLESGGGLVQPGGSMRLSCAASGFTFSNYWMNWVRQAPGKGLEWIAQIRLKSDNYATHYTDSVKGRFTISRDDSKSTVYLQMNSLRAEDTGTYYCNDGPPSGSWGQGTLLTVSS
VL: DIQMTQSPSSLSASVGDRVTITCRISENIYSYLAWYQQKPGKAPKLLVYNAKILVEGVPSRFSGSGSGTDFTLTISSLQPEDFGTYYCQHHYTVPWTFGQGTKLEIK
B2: AB S1 (antibody, V domains shown)
VH: B1 VH with S79R, N99S
VL: B1 VL
B3: AB S6 (antibody, V domains shown)
VH: B1 VH with I48L, A59V, T63A, S79R
VL: B1 VL
B4: AB S5 (antibody, V domains shown)
VH: B1 VH with I48L, S79R, T95I, N99S
VL: B1 VL
B5: AB S7 (antibody, V domains shown)
VH: QVQLVQSGAEVKKPGASVKMSCKASGYTFTTYTIHWVRQAPGQGLEWIGFINPSSGYTEYAQKFQGRVTLTADKSTSTVYMELSSLRSEDTAVYFCANGDYYVAYWGQGTLVTVSS
VL: DIQLTQSPSSLSASVGDRVTMTCTASSSVSSTYFHWYQQKPGKAPKLWIYSTSNLASGVPSRFSGSGSGTDYTLTISSMQPEDAATYYCHQYHRSPLTFGQGTKLEIK
B6: AB S11 (antibody, V domains shown)
VH: B5 VH with F50V
VL: B5 VL
B7: AB S8 (antibody, V domains shown)
VH: B5 VH with I34M, F50V, A104G
VL: B5 VL
B8: AB S10 (antibody, V domains shown)
VH: B5 VH with I34M, F95Y, A104G
VL: B5 VL
B9: AB S9 (antibody, V domains shown)
VH: B5 VH with F50V, E59D, A104G
VL: B5 VL
B10: AB S12 (antibody, V domains shown)
VH: B5 VH with I34M, A104G
VL: B5 VL

Changes are numbered by the printed parent chain.

One experiment concerns the target human Claudin-6 (CLDN6) (human) (UniProt P56747). Briefly: FACS, limiting dilution, UMUC4 cells. (In general: A flow cytometer gives signals particle by particle.)
For B1, the FACS signal at 0.32 nM was 518, the FACS signal at 1.6 nM turned out to be 651, the FACS signal at 8 nM was determined as 1300 and the FACS signal at 40 nM is 4120. The same molecule displayed an FACS signal at 200 nM of 13500 and an FACS signal at 1000 nM of 35000.

In the case of B2, the FACS signal at 0.32 nM turned out to be 639, the FACS signal at 1.6 nM was 767, the FACS signal at 8 nM was 2330 and the FACS signal at 40 nM stood at 6680. For the same molecule, the FACS signal at 200 nM was 18700 and the FACS signal at 1000 nM worked out at 41500.

Molecule B3 showed an FACS signal at 0.32 nM of 1320, an FACS signal at 1.6 nM of 1690, an FACS signal at 8 nM of 3300 and an FACS signal at 40 nM of 4120. The FACS signal at 200 nM came out at 12500 and the FACS signal at 1000 nM is 42300.

Molecule B4 returned an FACS signal at 0.32 nM of 481, an FACS signal at 1.6 nM of 885, an FACS signal at 8 nM of 2340 and an FACS signal at 40 nM of 7080. The molecule also had an FACS signal at 200 nM of 19000 and an FACS signal at 1000 nM of 47200.

For B5, the FACS signal at 0.32 nM is 1440, the FACS signal at 1.6 nM came out at 1790, the FACS signal at 8 nM amounted to 3940 and the FACS signal at 40 nM came to 7970. This molecule also yielded an FACS signal at 200 nM of 16700 and an FACS signal at 1000 nM of 37300.

B6 gave an FACS signal at 0.32 nM of 2350, an FACS signal at 1.6 nM of 2770, an FACS signal at 8 nM of 7000 and an FACS signal at 40 nM of 12800. For the same molecule, the FACS signal at 200 nM came to 19900 and the FACS signal at 1000 nM was 33400.

Turning to B7, the FACS signal at 0.32 nM was 720, the FACS signal at 1.6 nM came to 6220, the FACS signal at 8 nM came out at 7200 and the FACS signal at 40 nM stood at 16600. This molecule also gave an FACS signal at 200 nM of 32900 and an FACS signal at 1000 nM of 40500.

B8 registered an FACS signal at 0.32 nM of 874, an FACS signal at 1.6 nM of 2540, an FACS signal at 8 nM of 6850 and an FACS signal at 40 nM of 9940. The same molecule had an FACS signal at 200 nM of 22200 and an FACS signal at 1000 nM of 35100.

B9 had an FACS signal at 0.32 nM of 1910, an FACS signal at 1.6 nM of 11600, an FACS signal at 8 nM of 19200 and an FACS signal at 40 nM of 23900. This molecule also registered an FACS signal at 200 nM of 35600.

Regarding B10, the FACS signal at 0.32 nM was found to be 947, the FACS signal at 1.6 nM stood at 1910, the FACS signal at 8 nM worked out at 5040 and the FACS signal at 40 nM was determined as 14800. This molecule came in with an FACS signal at 200 nM of 37500.

A further experiment has the same target. The experiment in a line: FACS, limiting dilution, ARK2 cells.
As for B1, the FACS signal at 0.32 nM was 354, the FACS signal at 1.6 nM was found to be 438, the FACS signal at 8 nM is 1720 and the FACS signal at 40 nM was found to be 6350. In addition, the FACS signal at 200 nM was 31500 and the FACS signal at 1000 nM was found to be 62500.

On to B2, for which the FACS signal at 0.32 nM was determined as 466, the FACS signal at 1.6 nM is 1380, the FACS signal at 8 nM was 3850 and the FACS signal at 40 nM is 25800. For the same molecule, the FACS signal at 200 nM was determined as 62500.

Regarding B3, the FACS signal at 0.32 nM was 448, the FACS signal at 1.6 nM amounted to 765, the FACS signal at 8 nM amounted to 3800 and the FACS signal at 40 nM turned out to be 14600. Also, the FACS signal at 200 nM turned out to be 54100.

As to B4, the FACS signal at 0.32 nM was determined as 372, the FACS signal at 1.6 nM worked out at 997, the FACS signal at 8 nM was 5560 and the FACS signal at 40 nM was 25600. Also, the FACS signal at 200 nM was determined as 78800.

B5: the FACS signal at 0.32 nM turned out to be 876, the FACS signal at 1.6 nM came to 2350, the FACS signal at 8 nM is 6290 and the FACS signal at 40 nM is 16000. The same molecule returned an FACS signal at 200 nM of 47000 and an FACS signal at 1000 nM of 78700.

Consider B6, for which the FACS signal at 0.32 nM was 2130, the FACS signal at 1.6 nM turned out to be 6100, the FACS signal at 8 nM stood at 20200 and the FACS signal at 40 nM turned out to be 59400.

With B7, the FACS signal at 0.32 nM stood at 1640, the FACS signal at 1.6 nM came to 10400 and the FACS signal at 8 nM came to 42600.

Regarding B8, the FACS signal at 0.32 nM came out at 2080, the FACS signal at 1.6 nM came out at 7690, the FACS signal at 8 nM came out at 27500 and the FACS signal at 40 nM was determined as 68200.

Consider B9, for which the FACS signal at 0.32 nM is 2990, the FACS signal at 1.6 nM was 16400 and the FACS signal at 8 nM worked out at 54600.

B10 showed an FACS signal at 0.32 nM of 1310, an FACS signal at 1.6 nM of 2080, an FACS signal at 8 nM of 8850 and an FACS signal at 40 nM of 22900. Also, the FACS signal at 200 nM worked out at 62300.

A further experiment shares this target. Briefly: FACS, limiting dilution, OV90 cells.
Molecule B1 yielded an FACS signal at 0.32 nM of 432, an FACS signal at 1.6 nM of 515, an FACS signal at 8 nM of 1360 and an FACS signal at 40 nM of 4590. This molecule gave an FACS signal at 200 nM of 15900 and an FACS signal at 1000 nM of 42000.

Consider B2, for which the FACS signal at 0.32 nM worked out at 475, the FACS signal at 1.6 nM was 668, the FACS signal at 8 nM was 2390 and the FACS signal at 40 nM came to 10500. Moreover, the FACS signal at 200 nM was determined as 43500.

B3 had an FACS signal at 0.32 nM of 467, an FACS signal at 1.6 nM of 791, an FACS signal at 8 nM of 2950 and an FACS signal at 40 nM of 12600. Moreover, the FACS signal at 200 nM came out at 38600 and the FACS signal at 1000 nM is 76600.

Turning to B4, the FACS signal at 0.32 nM was found to be 558, the FACS signal at 1.6 nM came out at 1040, the FACS signal at 8 nM turned out to be 5220 and the FACS signal at 40 nM came to 22500. Also, the FACS signal at 200 nM is 73300.

For B5, the FACS signal at 0.32 nM came out at 586, the FACS signal at 1.6 nM worked out at 1910, the FACS signal at 8 nM amounted to 4500 and the FACS signal at 40 nM turned out to be 8570. This molecule had an FACS signal at 200 nM of 24000 and an FACS signal at 1000 nM of 53900.

Regarding B6, the FACS signal at 0.32 nM was determined as 1460, the FACS signal at 1.6 nM came out at 4950, the FACS signal at 8 nM was 14700 and the FACS signal at 40 nM was found to be 44900. This molecule also yielded an FACS signal at 200 nM of 85600.

As for B7, the FACS signal at 0.32 nM amounted to 834, the FACS signal at 1.6 nM is 6410, the FACS signal at 8 nM stood at 26700 and the FACS signal at 40 nM worked out at 85900.

In turn, B8 displayed an FACS signal at 0.32 nM of 862, an FACS signal at 1.6 nM of 4690, an FACS signal at 8 nM of 16300 and an FACS signal at 40 nM of 50400. The molecule also displayed an FACS signal at 200 nM of 87900.

As for B9, the FACS signal at 0.32 nM amounted to 2940, the FACS signal at 1.6 nM amounted to 14000 and the FACS signal at 8 nM was found to be 48500.

For the molecule B10, the FACS signal at 0.32 nM was found to be 638, the FACS signal at 1.6 nM turned out to be 1260, the FACS signal at 8 nM amounted to 4630 and the FACS signal at 40 nM is 14600. Further, the FACS signal at 200 nM amounted to 38300 and the FACS signal at 1000 nM came out at 83400.
